Results reported in US6451313.
Several values for one entry are separate records, joined by “and”; a condition that tells them apart may be missing. Equal entries are not always repeated.

How the values were obtained:
[1] = biological target: HIV-1IIIB gp120/gp41 stably expressed on CHO cells (HIV-1 IIIB); assay: cell-based or functional assay
[2] = biological target: recombinant HIV-1 gp120 from the primary isolate HIV-1JR-FL (HIV-1 JR-FL) (UniProt P20871); assay: modified ELISA, gp120 captured on plate, 50% maximal binding
[3] = biological target: recombinant HIV-1 gp120 from the laboratory-adapted strain HIV-1LAI (HIV-1 LAI) (UniProt P03377); assay: as above

CD4-IgG2 chimeric heterotetramer (Fc fusion)
IC50 of syncytium inhibition (CHO cells expressing HIV-1IIIB gp120/gp41 with C8166 cells) [1]: 9 nM and 1.81 µg/ml | Relative Potency (mass), relative to sCD4, syncytium inhibition [1]: 5.1 fold | Relative Potency (molarity), relative to sCD4, syncytium inhibition [1]: 22.2 fold | EC50 [2]: 0.64 nM | EC50 [3]: 1.25 nM
